From paper PMC4655421

Tested on: C=C(OP(=O)(O)O)C(=O)O
Test: Steady-state ATP production by pyruvate kinase monitored by Rho-MatB
Type: biochemical, rabbit
Settings: pH 7.5
[1] = other: single curve fit, Figure 6B, 250 μM ADP, 20 °C

pyruvate kinase (Oryctolagus cuniculus)
Km (other: n = 5, 20.0 °C): 103 µM
Km [1]: 75.5 ± 3.4 µM
Vmax [1]: 0.019 ± 0.002 μM s^–1
